Values quoted from earlier work as cited in publication PMC12152951.

Columns and labels:
TSLPR (Homo sapiens) = TSLPR (Homo sapiens) (UniProt Q9HC73)
[1] = target: TSLPR-IL7Rα fusion protein (Homo sapiens) (UniProt Q9HC73)
IL7Rα (Homo sapiens) = IL7Rα (Homo sapiens) (UniProt P16871)
Chain of UniProt P16871 (P16871 21-239): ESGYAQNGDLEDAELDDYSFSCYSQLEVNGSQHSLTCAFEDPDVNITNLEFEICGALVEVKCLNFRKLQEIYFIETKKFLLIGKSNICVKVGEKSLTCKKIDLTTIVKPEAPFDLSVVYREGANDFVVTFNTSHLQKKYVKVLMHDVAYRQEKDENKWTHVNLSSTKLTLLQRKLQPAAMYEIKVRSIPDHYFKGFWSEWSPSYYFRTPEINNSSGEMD

Kd (TSLPR (Homo sapiens))	Kd [1]	Kd (IL7Rα (Homo sapiens))	Substance
32 nM	0.09 nM		TSLP (from UniProt Q969D9)
		29 nM	TSLP-TSLPR complex (from UniProt Q969D9)
